Assay results from patent US6001657.

Tests used:
[1] = tested on: anti-quadruplex monoclonal autoantibody me^v-alphaQ1 (Mus musculus); assay: FP filter; conditions: nitrocellulose filter binding (RIFB), Scatchard; TEP buffer 50 mM Tris pH 7.4, 5 mM EDTA, 150 mM KCl, 37 C; Ka 2.7e6 M^-1 in table (text prints 2.7e5)
[2] = tested on: anti-quadruplex monoclonal autoantibody me^v-alphaQ1 (Mus musculus); assay: filter; conditions: RIFB, Scatchard, TEP buffer 150 mM KCl, 37 C

TTGGGGTTGGGGTTGGGGTTGGGG [(TET4)4 quadruplex]
Kd [1]: 0.37 µM

TGGGG [d(TG4)4 quadruplex]
Kd ([2]; Ka 2.5e6 M^-1): 0.4 µM

CGCGGGGGCG [d(CGC G4 GCG)4 quadruplex]
Kd ([2]; Ka 1.6e6 M^-1): 0.63 µM

GGGGTTTGGGGTTTCCCC [d(G4T3G4T3C4) triplex]
Kd ([2]; Ka 6.8e5 M^-1): 1.5 µM

CGCGCGCGCG (double strand) [d(CG5)2 duplex]
Kd ([2]; Ka 3.8e5 M^-1, negative control in screening): 2.6 µM

poly r(G)
Kd ([2]; Ka 4.0e5 M^-1): 2.5 µM

CCCCTTTGGGGTTTGGGG [d(C4T3G4T3G4) triplex]
Kd ([2]; Ka 5.0e5 M^-1): 2 µM
